Results on one molecule are retold here after patent US10772972B2, “Anti-STEAP2 antibody drug conjugates, and compositions and uses thereof” (Regeneron Pharmaceuticals, Inc., priority 2016, dated 2020).

For assay [1], the system named is Jurkat cells (express human CD3). Briefly: FACS binding titration of STEAP2xCD3 bispecifics on Jurkat cells. The conditions noted are these: 66.6 nM to 0.001 nM, 30 minutes at 4° C. The procedure: (§1) FACS Binding Titration on Jurkat Cells, PC3_STEAP2/1 Cells and cynomolgus T Cells: Flow cytometric analysis was utilized to determine binding of STEAP2×CD3 bispecific antibodies to Jurkat, PC3_STEAP2/1 chimeric and cynomolgus T cells, followed by detection with a phycoerythrin (PE)-labeled anti-human IgG antibody. Briefly, 2×10^5 cells/well were incubated for 30 minutes at 4° C. with a serial dilution of STEAP2×CD3 bispecific antibodies or control antibody (a human IgG1 antibody that binds a feline antigen with no cross-reactivity to STEAP2 or human or cynomolgus CD3) ranging from 66.6 nM to 0.001 nM. After incubation, the cells were washed twice with cold PBS containing 1% filtered FBS and a PE-conjugated anti-human secondary antibody was added to the cells and incubated for an additional 30 minutes. Wells containing no antibody or secondary antibody only were used as a control. After incubation, cells were washed, re-suspended in 200 μL cold PBS containing 1% filtered FBS and analyzed by flow cytometry on a BD FACS Canto II.
In general terms: Flow cytometry measures light scatter and fluorescence of single cells or particles in a stream.

The test system of assay [2] is PC3_STEAP2/1 cells (PC3 engineered to express a STEAP2/1 chimeric construct). Briefly: FACS binding titration of STEAP2xCD3 bispecifics on PC3_STEAP2/1 cells. The conditions noted are these: 66.6 nM to 0.001 nM, 30 minutes at 4° C. On the set-up: species or system human. How it is done:
as §1

Another assay concerns cynomolgus T cells. In words: FACS binding titration of STEAP2xCD3 bispecifics on cynomolgus T cells. The conditions noted are these: 66.6 nM to 0.001 nM, 30 minutes at 4° C.
The test system of another assay is human PBMCs. In words: T cell proliferation assay, human PBMC. The class given is cell-based. To be noted: with anti-CD28 200 ng/mL, 72 hours; read-out: hPBMC Proliferation [M] (EC50). How it is done:
Thawed human or freshly isolated monkey PBMCs (50,000 cells/well) were incubated with 3-fold (human, concentration range: 5E-10M to 2.82E-15M; cynomolgus, concentration range: 1E-09M to 4.57E-13M) serial dilutions of STEAP2×CD3 bispecifics or isotype control in complete medium (RPMI supplemented with 10% FBS, 100 U/mL penicillin, 100 μg/mL streptomycin, 292 μg/mL L-glutamine) and a fixed concentration (human: 200 ng/mL, cyno: 500 ng/mL) of a commercial anti-CD28 antibody (Biolegend, Catalog #302914) in white flat bottom 96-well plates for 72 hours at 37° C. Isolated monkey PBMCs were from two donors (identified as mk8781M or mk9381M). Following incubation, CellTiter Glo® (Promega, Cat #7573) was added and luminescence, as readout for cell viability, was measured using a VICTOR X5 multi-label plate reader. Cell titer was calculated by dividing the luminescence of stimulated cells by the baseline luminescence of unstimulated cells.
All αSTEAP2×αCD3 bispecific antibodies induce human PBMC proliferation in the presence of a co-stimulatory anti-CD28 antibody (See Table 20 and FIG. 9). PBMCs were incubated with a serial dilution of bispecific antibodies or the control antibody and a fixed concentration of anti-CD28 for 72 hours, and cell viability was measured in a luminescence assay to detect live cells. […]

B1: BSSTEAP2/CD3-010: STEAP2×CD3 bispecific: anti-STEAP2 H1H7809N (SEQ 330), anti-CD3 H1H7198P (SEQ 1466), common LCVR of H1H7809N (antibody, V domains shown)
VH 1: QVQLVESGGGVVQPGRSLGLSCAASGFTFSSYGMHWVRQAPGKGLEWVAVIWYDGSNKYYVDSVKGRFTISRDNSKNTLYLQMNSLRAEDTAVYYCAREGLRFLENYYYYYGMDVWGQGTTVTVSS
VH 2: EVQLVESGGGLVQPGRSLRLSCAASGFTFADYTMHWVRQVPGKGLEWVSDISWNSGSKDYADSVKGRFTISRDNAKNFLYLQMNSLRAEDTALYYCVKYGSGYGKFYFYAMDVWGQGTTVTVSS
VL: EIVLTQSPGTLSLSPGERATLSCRASQSISSTYLAWYQQRPGQAPRLLIYGASSRATGIPDRFSGSGSGTDFTLTISRLEPEDFAVYYCQQYGTSPYTFGQGTKLEIK
For the molecule B1, the EC50 in assay [1] is 13.6 nM; with human PBMCs, 6.55e-12 M. In addition, the “FACS PC3_STEAP2/1 EC50 [M]” value in assay [2] was “No Binding”. For the same molecule, the “Cynomolgus T cells EC50 [M]” value in the assay with cynomolgus T cells is recorded as “Very Weak”.
